Where a chain is given by its changes, count along the chain named.

Test in all cases: SPR; KD relative to WT C2;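 note: biacore SPR at 37 °C, anti-C2 mAbs captured on an anti-human IgG chip, alanine or serine C2 surface mutants tested, KD from 1:1 fit compared with wild-type C2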
In experiment [1] the target is T1, human complement C2 (human, UniProt P06681 21-752).
T1 construct: Recombinant full-length human C2 with C-terminal 8x His tag, purified from Expi293F supernatant; also called human C2; huC2
T1 sequence: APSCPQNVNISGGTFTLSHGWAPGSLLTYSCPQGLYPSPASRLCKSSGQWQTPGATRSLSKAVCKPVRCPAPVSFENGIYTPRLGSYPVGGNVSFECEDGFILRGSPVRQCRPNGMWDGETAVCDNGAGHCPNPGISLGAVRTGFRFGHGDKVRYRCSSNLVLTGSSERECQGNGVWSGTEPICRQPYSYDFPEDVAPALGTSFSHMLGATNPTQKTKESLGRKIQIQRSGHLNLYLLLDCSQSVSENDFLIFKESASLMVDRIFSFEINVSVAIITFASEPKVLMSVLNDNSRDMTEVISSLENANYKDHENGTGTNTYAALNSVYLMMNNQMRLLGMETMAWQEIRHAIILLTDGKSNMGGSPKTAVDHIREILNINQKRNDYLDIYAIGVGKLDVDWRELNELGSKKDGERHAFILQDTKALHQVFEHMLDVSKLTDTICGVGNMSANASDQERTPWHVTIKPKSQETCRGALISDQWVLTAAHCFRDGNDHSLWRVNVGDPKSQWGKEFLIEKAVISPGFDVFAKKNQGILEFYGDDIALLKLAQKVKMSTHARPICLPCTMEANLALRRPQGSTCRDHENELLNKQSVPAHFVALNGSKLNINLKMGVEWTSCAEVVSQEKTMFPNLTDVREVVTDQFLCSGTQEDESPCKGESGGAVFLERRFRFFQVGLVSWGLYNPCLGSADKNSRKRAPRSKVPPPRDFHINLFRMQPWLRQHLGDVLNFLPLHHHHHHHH

For experiment [2], the target named is T2, human C2 I272A (human, UniProt P06681 21-752).
T2 sequence: T1 sequence with I252A

Experiment [3] concerns the target T3, human C2 S428A (human, UniProt P06681 21-752).
T3 sequence: T1 sequence with S408A

In experiment [4] the target is T4, human C2 V448A (human, UniProt P06681 21-752).
T4 sequence: T1 sequence with V428A

B1: RF16-214 (antibody, V domains shown)
VH: EVQLLESGGGLVQPGGSLRLSCAASGFTFSWYQMMWVRQAPGKGLEWVSRIYPSGGGTAYADSVKGRFTISRDNSKNTLYLQMNSLRAEDTAVYYCARDAGYGDNWGQGTLVTVSS
VL: QSALTQPPSVSVSPGQTASITCSGDKLGEKYASWYQQKAGQSPVMVIYQDRKRPSGIPERFSGSNSGNTATLTISGTQAMDEADYYCQAWDTRAVVFGGGTKLTVLG
As to B1, the Fold diff in experiment [1] is 1 fold; in experiment [2] it was 15 fold; in experiment [3], 2 fold; in experiment [4], 0 fold.

(Values after patent US20220332804A1 (CSL INNOVATION, published 2022).)
